Test results taken from PMC5056641.

Target: SRSF1 (ASF/SF2), unphosphorylated (human, UniProt Q07955 1-248)
Assay: filter binding

Chain of SRSF1 (ASF/SF2), unphosphorylated (Q07955 whole entry): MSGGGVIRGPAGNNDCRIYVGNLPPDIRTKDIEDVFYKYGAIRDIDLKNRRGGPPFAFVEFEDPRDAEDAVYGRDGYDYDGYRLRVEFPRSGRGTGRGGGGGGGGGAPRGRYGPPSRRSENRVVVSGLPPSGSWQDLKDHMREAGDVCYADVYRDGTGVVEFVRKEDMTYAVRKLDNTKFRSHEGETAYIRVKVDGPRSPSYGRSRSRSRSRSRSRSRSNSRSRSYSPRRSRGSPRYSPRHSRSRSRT

B1: Ron ESE 13mer (ssRNA)
RNA: AGGCGGAGGAAGC
  apparent K (half saturation): 66 ± 2 nM
